Data reported in patent publication US20200239585A1, “MODULATING THE IMMUNE RESPONSE USING ANTIBODY-DRUG CONJUGATES” (Seattle Genetics, Inc., priority 2017, published 2020).

Key:
[1] = test system: Hodgkin disease xenograft; conditions: SCID mouse xenograft models of Hodgkin disease; cited from earlier work
CD30+ cell lines = conditions: cited from earlier work
[2] = test system: efflux pump activity of T cell subsets; assay: rhodamine 123 efflux assay; assay type: cell-based, human; conditions: 37° C., 5-hour time-course; FIG. 9D
Procedure: Sensitivity of cells to many chemotherapies, including MMAE, is influenced by cell-intrinsic drug efflux activity. T cell subsets were evaluated for relative efflux pump activity using a rhodamine 123 efflux assay, following manufacturer's protocol (Chemicon International, Multidrug Resistance Direct Dye Efflux Assay). Enriched T cell populations were loaded with rhodamine 123, incubated in a 37° C. water bath, and were measured for loss of fluorescence over a 5-hour time-course by flow cytometry.

[3] = test system: human T regulatory cells and CD8+ T cells; assay: xeno-GVHD model, human T cell subtypes in spleen; assay type: in vivo, NSG mice
iTregs and CD8+ T cells = assay: iTreg / CD8+ T cell co-culture suppression assay; assay type: cell-based, human; conditions: iTregs:CD8+ T cells 1:2, CD3/CD28 beads, four days, increasing concentrations, two donors; FIG. 2C, 2D
Procedure: As shown in FIG. 2A and FIG. 2B, increasing the iTreg/CD8^+ T cell ratio, for each donor, further abrogated T cell expansion, confirming suppressive function. To evaluate the effect of BV on iTreg suppression in vitro, co-culture suppression assays were performed. iTregs and CD8^+ T cells were mixed at a 1:2 ratio and combined with CD3/CD28 beads. Replicate wells were treated with a titration of BV or control IgG-MMAE. After four days of culture, viable iTregs and CD8^+ T cells were quantified by flow cytometry.

[4] = test system: CD25hi CD127lo T regulatory cells; assay: activated peripheral blood Treg depletion in vitro; assay type: cell-based, human; conditions: four separate donors, CD3/CD28 beads+IL-2, 4-5 days; FIG. 3A
Procedure: (§1) CD25^hi CD127^lo T regulatory cells or CD8^+ T cells, enriched from peripheral blood derived leukoreduction system (LRS) chambers, were plated with CD3/CD28 beads+IL-2 in round-bottom 96-well tissue culture plates for 4-5 days with a titration of BV or control IgG-MMAE. On the final day of the assay, cells were stained as described above (viability dye and αCD30-PE antibody) and evaluated by flow cytometry.

[5] = test system: inducible T regulatory cells (iTregs); assay: iTreg viability on in vitro proliferation with a titration of BV or control IgG-MMAE; assay type: cell-based, human; conditions: CD3/CD28 beads, 4-5 days
Procedure: CD4^+ T cells, isolated from healthy donor PBMC (Astarte Biologics, Bothell Wash.) were used to generate inducible T regulatory cells (iTregs). iTreg differentiation was performed over 1-2 weeks in 6-well tissue culture plates at 37° C. Cells were incubated with CD3/CD28 MACS iBead particles (Miltenyi biotec) at a 1:32 bead/cell ratio, in 2-3 ml of X-VIVO 15 media (Lonza) containing 1L-2 (50 ng/ml), TGFβ (50 ng/ml), and a 1:100 dilution of Lipid-Mixture 1 (Sigma-Aldrich). iTregs were evaluated for FoxP3 and CD30 expression by FACS analysis on an Attune NXT flow cytometer (Life Technologies). Following differentiation, individual donor iTreg populations ranged between 20-80% FoxP3^+ and 40-70% CD30^+.
To evaluate the effect of brentuximab vedotin (BV), and anti-CD30 antibody drug-conjugate on iTreg viability, cells were driven to proliferate in vitro in the presence of BV or control antibody drug-conjugate (IgG-MMAE). Briefly, iTregs were mixed with CD3/CD28 beads (8:1) in RPMI 10% FCS and were distributed at approximately 2.0×10^4 cells/well into a 96-well round-bottom plate. A titration of BV or control IgG-MMAE was added to replicate wells at the concentrations listed, for a final volume of 200 μl, and plates were incubated at 37° C. for 4-5 days. […]

[6] = test system: peripheral blood T cell subsets; assay: immunophenotyping of peripheral blood in classical Hodgkin lymphoma patients after BV; assay type: in vivo, human
From the text: The effects of BV on circulating immune cells has not previously been fully elucidated. Sixty-two patients adult patients with classical Hodgkin lymphoma (cHL) that had relapsed or was refractory to frontline chemotherapy were enrolled in a study to evaluate treatment with BV. Patients were excluded if they previously received prior salvage therapy, including salvage radiotherapy, for refractory cHL; BV or any immuno-oncology therapy affecting the PD-1, CTLA4, or CD137 pathways; and/or allogeneic or autologous stem cell transplant (ASCT). BV was administered to the patients at a dose of 1.8 mg/kg on Day 1 and the patients were assessed on Day 8. Immunophenotyping of peripheral blood by flow cytometry was performed by Q2 Solutions on heparinized whole blood. Cell pellets, resulting from plasma banking, were sent to Adaptive for T Cell Receptor β (TCRβ) sequencing. Peripheral blood mononuclear cells were isolated from CPT tubes, frozen, and then analyzed in batches by Caprion using their intracellular cytokine staining platform following peptide stimulation.

CD8+ T cells = assay: activated peripheral blood CD8+ T cell depletion in vitro; assay type: cell-based, human; conditions: up to 10 μg/ml of BV, CD3/CD28 beads+IL-2, 4-5 days; FIG. 3B
Procedure: as §1

cAC10: chimeric IgG1 monoclonal antibody that specifically binds CD30
antitumor activity [1]: pronounced antitumor activity | growth of CD30+ cell lines in vitro (CD30+ cell lines): induces growth arrest

rhodamine 123 [rhodamine-123]
clearance of intracellular rhodamine-123 in CD8+ T cells [2]: rapid clearance | rhodamine-123 efflux in T regulatory cells among T cell subsets [2]: slowest

B1: brentuximab vedotin (conjugate)
VH: QIQLQQSGPEVVKPGASVKISCKASGYTFTDYYITWVKQKPGQGLEWIGWIYPGSGNTKYNEKFKGKATLTVDTSSSTAFMQLSSLTSEDTAVYFCANYGNYWFAYWGQGTQVTVSA
VL: DIVLTQSPASLAVSLGQRATISCKASQSVDFDGDSYMNWYQQKPGQPPKVLIYAASNLESGIPARFSGSGSGTDFTLNIHPVEEEDAATYYCQQSNEDPWTFGGGTKLEIK
human T regulatory cells in the spleen ([3]; single i.p. 3 mg/kg on day 5, spleens on day 12, compared to PBS alone, FIG. 4A): significantly reduced | splenic CD8+ T cells ([3]; single i.p. 3 mg/kg on day 5, spleens on day 12, FIG. 4B): unaffected by BV treatment with a trend toward increased numbers | CD8+ T cell/Treg ratio in vivo ([3]; single i.p. 3 mg/kg on day 5, spleens on day 12, FIG. 4C): increased | CD8+ T cell accumulation in co-culture (iTregs and CD8+ T cells): augmented | viable iTregs in co-culture (iTregs and CD8+ T cells): selectively reduced | viable CD30+ Treg numbers [4]: dose-dependent reduction | numbers of CD30+ iTregs ([5]; FIG. 1B): enhanced depletion | total viable iTreg numbers ([5]; five separate donors, FIG. 1A): dose-dependent reduction | reduction of CD30+ regulatory T cells compared to reduction of other CD30+ T helper cells ([6]; 1.8 mg/kg on Day 1, assessed on Day 8): more significantly | T helper cell subset populations including regulatory T cells ([6]; 1.8 mg/kg on Day 1, assessed on Day 8, peripheral blood, FIG. 5): reduction | number of CD30-expressing regulatory T cells in the peripheral blood ([6]; 1.8 mg/kg on Day 1, assessed on Day 8, FIG. 7): significantly reduced | number of CD30+ T regulatory cells as compared to CD30− T regulatory cells ([6]; single treatment, versus baseline, FIG. 7): reduced | depletion of CD30+ CD8+ T cells (CD8+ T cells): did not deplete
